# Source: patent publication US20230167164A1 (IMMUNOWAKE, published 2023)
# Where a chain is given by its changes, count along the chain named. Names and notes keep the numbering of the source.
# T1: human IL-2 receptor (human, UniProt P01589 22-272; P14784 27-551; P31785 23-369)
# T1 sequence (looked up) 1: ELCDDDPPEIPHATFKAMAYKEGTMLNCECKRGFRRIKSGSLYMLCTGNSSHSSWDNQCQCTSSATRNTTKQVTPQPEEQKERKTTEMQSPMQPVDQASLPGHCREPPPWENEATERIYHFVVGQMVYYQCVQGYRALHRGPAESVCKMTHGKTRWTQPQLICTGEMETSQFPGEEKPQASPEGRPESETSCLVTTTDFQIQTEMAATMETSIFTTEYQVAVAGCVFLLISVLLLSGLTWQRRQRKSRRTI
# T1 sequence (looked up) 2: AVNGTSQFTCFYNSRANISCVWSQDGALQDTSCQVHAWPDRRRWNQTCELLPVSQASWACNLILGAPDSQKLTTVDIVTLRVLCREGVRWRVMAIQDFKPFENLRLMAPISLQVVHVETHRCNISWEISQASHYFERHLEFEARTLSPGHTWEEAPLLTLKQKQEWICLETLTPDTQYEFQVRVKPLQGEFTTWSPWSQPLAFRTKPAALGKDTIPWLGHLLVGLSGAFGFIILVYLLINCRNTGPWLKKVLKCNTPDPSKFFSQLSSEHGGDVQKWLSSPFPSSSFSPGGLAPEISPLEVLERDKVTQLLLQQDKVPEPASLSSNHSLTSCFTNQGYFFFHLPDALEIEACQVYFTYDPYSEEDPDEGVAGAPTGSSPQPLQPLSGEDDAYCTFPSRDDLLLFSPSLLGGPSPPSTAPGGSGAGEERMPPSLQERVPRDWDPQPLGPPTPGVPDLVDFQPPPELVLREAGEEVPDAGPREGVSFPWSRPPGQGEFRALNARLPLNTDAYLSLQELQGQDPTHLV
# T1 sequence (looked up) 3: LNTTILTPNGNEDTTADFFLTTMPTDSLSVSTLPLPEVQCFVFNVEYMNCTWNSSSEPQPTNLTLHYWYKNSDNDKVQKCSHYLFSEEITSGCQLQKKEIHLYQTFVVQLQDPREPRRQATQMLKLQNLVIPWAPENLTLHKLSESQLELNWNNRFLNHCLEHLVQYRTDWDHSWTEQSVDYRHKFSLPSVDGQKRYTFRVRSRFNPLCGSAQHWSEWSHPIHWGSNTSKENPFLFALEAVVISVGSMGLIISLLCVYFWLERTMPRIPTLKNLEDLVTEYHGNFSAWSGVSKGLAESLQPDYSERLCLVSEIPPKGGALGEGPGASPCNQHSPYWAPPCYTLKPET
# T2: mouse PD-1 (mouse, UniProt Q02242 25-167, limits assumed)
# T2 construct: also called mPD-1
# T2 sequence (looked up): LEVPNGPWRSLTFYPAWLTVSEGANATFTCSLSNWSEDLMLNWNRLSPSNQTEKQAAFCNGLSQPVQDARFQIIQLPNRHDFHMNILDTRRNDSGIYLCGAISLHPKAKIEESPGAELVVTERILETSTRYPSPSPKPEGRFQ
# B1: IL-2(R38D/K43E/E61R)/PD-L1(mut2)-Fc (Fc fusion)
# chain 1: FTVTVPKDLYVVEYGSNMTIECKFPVEKQLDLAALQVYWMMEDKNIIQFVHGEEDLKVQHSSYRQRARLLKDQLSLGNAALQITDVKLQDAGVYTCLIAYKGADYKRITVKVNAPYNKINQRILVVDPVTSEHELTCQAEGYPKAEVIWTSSDHQVLSGKTTTTNSKREEKLFNVTSTLRINTTTNEIFYCTFRRLDPEENHTAELVIPELPLAHPPNERGGGSGAPTSSSTKKTQLQLEHLLLDLQMILNGINNYKNPKLTDMLTFEFYMPKKATELKHLQCLERELKPLEEVLNLAQSKNFHLRPRDLISNINVIVLELKGSETTFMCEYADETATIVEFLNRWITFCQSIISTLTGGGGSGGGDKTHTCPPCPAPEKKGGPSVFLFPPKPKDTLMISRTPEVTCVVVDVSHEDPEVKFNWYVDGVEVHNAKTKPREEQYNSTYRVVSVLTVLHQDWLNGKEYKCKVSNKALPAPIEKTISKAKGQPREPQVYVLPPSREEMTKNQVSLLCLVKGFYPSDIAVEWESNGQPENRYMTWPPVLDSDGSFFLYSKLTVDKSRWQQGNVFSCSVMHEALHNHYTQKSLSLSPGK
# chain 2: FTVTVPKDLYVVEYGSNMTIECKFPVEKQLDLAALQVYWMMEDKNIIQFVHGEEDLKVQHSSYRQRARLLKDQLSLGNAALQITDVKLQDAGVYTCLIAYKGADYKRITVKVNAPYNKINQRILVVDPVTSEHELTCQAEGYPKAEVIWTSSDHQVLSGKTTTTNSKREEKLFNVTSTLRINTTTNEIFYCTFRRLDPEENHTAELVIPELPLAHPPNERGGGGSGGGDKTHTCPPCPAPEDEGGPSVFLFPPKPKDTLMISRTPEVTCVVVDVSHEDPEVKFNWYVDGVEVHNAKTKPREEQYNSTYRVVSVLTVLHQDWLNGKEYKCKVSNKALPAPIEKTISKAKGQPREPQVYVYPPSREEMTKNQVSLTCLVKGFYPSDIAVEWESNGQPENNYKTTPPVLDEDGSFALVSKLTVDKSRWQQGNVFSCSVMHEALHNHYTQKSLSLSPGK
# B2: IL-2(R38D/K43E/E61R/Q126T)/PD-L1(mut2)-Fc (Fc fusion)
# chain 1: B1 chain 1 with Q351T
# chain 2: B1 chain 2
# B3: IL-2(L18R/Q22E/R38D/K43E/E61R)/PD-L1(mut2)-Fc (Fc fusion)
# chain 1: B1 chain 1 with L243R, Q247E
# chain 2: B1 chain 2
# B4: IL-2(L18R/Q22E/R38D/K43E/E61R/Q126T)/PD-L1(mut2)-Fc (Fc fusion)
# chain 1: B1 chain 1 with L243R, Q247E, Q351T
# chain 2: B1 chain 2
# B5: IL-2(L18R/Q22E/R38D/K43E/E61R/Q126T/S130R)/PD-L1(mut2)-Fc (Fc fusion)
# chain 1: B1 chain 1 with L243R, Q247E, Q351T, S355R
# chain 2: B1 chain 2
# B6: IL-2(R38D/K43E/E61R/Q126T)/IL-12(E59A/F60A)/PD-L1(mut2)-Fc (Fc fusion)
# chain 1: FTVTVPKDLYVVEYGSNMTIECKFPVEKQLDLAALQVYWMMEDKNIIQFVHGEEDLKVQHSSYRQRARLLKDQLSLGNAALQITDVKLQDAGVYTCLIAYKGADYKRITVKVNAPYNKINQRILVVDPVTSEHELTCQAEGYPKAEVIWTSSDHQVLSGKTTTTNSKREEKLFNVTSTLRINTTTNEIFYCTFRRLDPEENHTAELVIPELPLAHPPNERGGGGSGGGIWELKKDVYVVELDWYPDAPGEMVVLTCDTPEEDGITWTLDQSSEVLGSGKTLTIQVKAAGDAGQYTCHKGGEVLSHSLLLLHKKEDGIWSTDILKDQKEPKNKTFLRCEAKNYSGRFTCWWLTTISTDLTFSVKSSRGSSDPQGVTCGAATLSAERVRGDNKEYEYSVECQEDSACPAAEESLPIEVMVDAVHKLKYENYTSSFFIRDIIKPDPPKNLQLKPLKNSRQVEVSWEYPDTWSTPHSYFSLTFCVQVQGKSKREKKDRVFTDKTSATVICRKNASISVRAQDRYYSSSWSEWASVPCSGGGGSGGGSGGGGSRNLPVATPDPGMFPCLHHSQNLLRAVSNMLQKARQTLEFYPCTSEEIDHEDITKDKTSTVEACLPLELTKNESCLNSRETSFITNGSCLASRKTSFMMALCLSSIYEDLKMYQVEFKTMNAKLLMDPKRQIFLDQNMLAVIDELMQALNFNSETVPQKSSLEEPDFYKTKIKLCILLHAFRIRAVTIDRVMSYLNASGGGGSGGGDKTHTCPPCPAPEDEGGPSVFLFPPKPKDTLMISRTPEVTCVVVDVSHEDPEVKFNWYVDGVEVHNAKTKPREEQYNSTYRVVSVLTVLHQDWLNGKEYKCKVSNKALPAPIEKTISKAKGQPREPQVYVYPPSREEMTKNQVSLTCLVKGFYPSDIAVEWESNGQPENNYKTTPPVLDEDGSFALVSKLTVDKSRWQQGNVFSCSVMHEALHNHYTQKSLSLSPGK
# chain 2: B1 chain 1 with Q351T
# B7: IL-2(L18R/Q22E/R38D/K43E/E61R)/IL-12(E59A/F60A)/PD-L1(mut2)-Fc (Fc fusion)
# chain 1: B6 chain 1
# chain 2: B1 chain 1 with L243R, Q247E
# B8: PD-L1(mut4)-Fc (Fc fusion)
# chain 1: FTVTVPKDLYVVEYGSNMTIECKFPVEKQLDLAALQVYWMMEDKNIIQFVHGEEDLKVQHSSYRQRARLLKDQLSLGNAALQITDVKLQDAGVYRCLIAYKGADYKRITVKVNAPYNKINQRILVVDPVTSEHELTCQAEGYPKAEVIWTSSDHQVLSGKTTTTNSKREEKLFNVTSTLRINTTTNEIFYCTFRRLDPEENHTAELVIPELPLAHPPNERDKTHTCPPCPAPEDEGGPSVFLFPPKPKDTLMISRTPEVTCVVVDVSHEDPEVKFNWYVDGVEVHNAKTKPREEQYNSTYRVVSVLTVLHQDWLNGKEYKCKVSNKALPAPIEKTISKAKGQPREPQVYVYPPSREEMTKNQVSLTCLVKGFYPSDIAVEWESNGQPENNYKTTPPVLDEDGSFALVSKLTVDKSRWQQGNVFSCSVMHEALHNHYTQKSLSLSPGK
# chain 2: B8 chain 1 with D234K, E235K, Y351L, T366L, N390R, K392M, T394W, E400S, A405F, V407Y
# notes: also called I54Q/E58M/M115L/S117A/G119K
# B9: PD-L1(mut6)-Fc (Fc fusion)
# chain 1: B8 chain 1 with R95T, A99S
# chain 2: FTVTVPKDLYVVEYGSNMTIECKFPVEKQLDLAALQVYWMMEDKNIIQFVHGEEDLKVQHSSYRQRARLLKDQLSLGNAALQITDVKLQDAGVYTCLISYKGADYKRITVKVNAPYNKINQRILVVDPVTSEHELTCQAEGYPKAEVIWTSSDHQVLSGKTTTTNSKREEKLFNVTSTLRINTTTNEIFYCTFRRLDPEENHTAELVIPELPLAHPPNERDKTHTCPPCPAPEKKGGPSVFLFPPKPKDTLMISRTPEVTCVVVDVSHEDPEVKFNWYVDGVEVHNAKTKPREEQYNSTYRVVSVLTVLHQDWLNGKEYKCKVSNKALPAPIEKTISKAKGQPREPQVYVLPPSREEMTKNQVSLLCLVKGFYPSDIAVEWESNGQPENRYMTWPPVLDSDGSFFLYSKLTVDKSRWQQGNVFSCSVMHEALHNHYTQKSLSLSPGK
# notes: also called PD-L1(I54Q/E58M/R113T/M115L/G119K)
# B10: PD-L1(mut5)-Fc (Fc fusion)
# chain 1: B8 chain 1 with R95T, L97M
# chain 2: B9 chain 2 with L97M, S99A
# notes: also called I54Q/E58M/R113T/S117A/G119K
# B11: PD-L1(mut7)-Fc (Fc fusion)
# chain 1: B8 chain 1 with R95T, K101G
# chain 2: B9 chain 2 with S99A, K101G
# notes: also called PD-L1(I54Q/E58M/R113T/M115L/S117A)
# Target: T3, human PD-1 overexpressed on HEK-Blue reporter cells (human, UniProt Q15116 25-288)
# Assay: cell-based or functional assay
# T3 sequence (Q15116 25-288): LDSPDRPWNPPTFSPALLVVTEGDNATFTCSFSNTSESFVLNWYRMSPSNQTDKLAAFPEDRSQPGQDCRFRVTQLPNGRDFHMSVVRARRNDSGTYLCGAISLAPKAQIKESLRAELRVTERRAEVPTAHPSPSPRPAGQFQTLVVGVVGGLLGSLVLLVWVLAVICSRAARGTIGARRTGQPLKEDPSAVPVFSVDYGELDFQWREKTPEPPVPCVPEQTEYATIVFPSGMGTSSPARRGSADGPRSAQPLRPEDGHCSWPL
row,"IL-2 signal transduction, % of rIL2, HEK-IL-2-PD-1 cells",Binder
1,76%,B1
2,20%,B2
3,35%,B3
4,5%,B4
5,< 0.1%,B5

# Target: T1, human IL-2 receptor
# Assay: cell-based or functional assay
row,"IL-2 signal transduction, % of rIL2, HEK-IL-2 cells",Binder
1,16%,B1
2,2%,B2
3,4%,B3
4,< 0.1%,B4
5,< 0.1%,B5

# Target: T3, human PD-1 overexpressed on HEK-Blue …
# Assay: cell-based or functional assay
# Remark: another data set of the same source
"IL-2 signal transduction, % of rIL-2, HEK-IL-2-PD-1 cells","IL-12 signal transduction, % of rIL-12, HEK-IL-12-PD-1 cells",Binder
20%,25%,B6
35%,19%,B7

# Target: T1, human IL-2 receptor
# Assay: cell-based or functional assay
# Remark: another data set of the same source
row,"IL-2 signal transduction, % of rIL-2, HEK-IL-2 cells",Binder
1,2%,B6
2,4%,B7

# Target: human IL-12 receptor complex (human, UniProt P42701 24-662; Q99665 24-862)
# Assay: cell-based or functional assay
# Chain of human IL-12 receptor complex (Q99665 24-862, chain 2 of 2, other chains not shown): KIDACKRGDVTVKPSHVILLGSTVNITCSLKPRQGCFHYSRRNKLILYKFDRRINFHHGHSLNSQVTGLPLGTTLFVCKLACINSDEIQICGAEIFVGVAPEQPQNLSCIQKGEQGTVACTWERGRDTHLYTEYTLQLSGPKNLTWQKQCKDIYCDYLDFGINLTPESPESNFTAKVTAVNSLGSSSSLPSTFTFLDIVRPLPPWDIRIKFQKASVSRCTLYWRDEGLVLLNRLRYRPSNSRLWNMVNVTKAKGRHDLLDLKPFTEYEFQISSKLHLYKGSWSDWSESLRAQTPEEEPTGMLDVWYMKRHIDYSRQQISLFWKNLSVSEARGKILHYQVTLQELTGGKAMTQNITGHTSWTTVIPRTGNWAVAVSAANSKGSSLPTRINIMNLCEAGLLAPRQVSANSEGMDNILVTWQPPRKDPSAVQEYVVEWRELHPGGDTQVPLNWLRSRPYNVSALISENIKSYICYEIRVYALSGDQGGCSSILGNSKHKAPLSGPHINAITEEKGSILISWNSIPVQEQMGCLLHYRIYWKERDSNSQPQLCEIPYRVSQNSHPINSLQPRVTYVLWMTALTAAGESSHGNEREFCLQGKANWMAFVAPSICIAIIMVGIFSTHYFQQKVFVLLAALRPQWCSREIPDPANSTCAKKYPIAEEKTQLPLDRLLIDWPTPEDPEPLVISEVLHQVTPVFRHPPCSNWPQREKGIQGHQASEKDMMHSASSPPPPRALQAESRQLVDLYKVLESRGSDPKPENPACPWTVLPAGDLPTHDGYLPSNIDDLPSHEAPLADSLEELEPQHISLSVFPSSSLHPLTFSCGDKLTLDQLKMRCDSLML
row,"IL-12 signal transduction, % of rIL-12, HEK-IL-12 cells",Binder
1,< 0.2%,B6
2,< 0.2%,B7

# Target: T4, human PD-1 (human, UniProt Q15116 25-167, limits assumed)
# T4 construct: nivolumab is called an anti-human PD-1 antibody; also called hPD-1
# Assay: PD-L1-Fc format, calibrated on PD-L1(wt)-Fc binding affinity
# T4 sequence (Q15116 25-167 limits assumed): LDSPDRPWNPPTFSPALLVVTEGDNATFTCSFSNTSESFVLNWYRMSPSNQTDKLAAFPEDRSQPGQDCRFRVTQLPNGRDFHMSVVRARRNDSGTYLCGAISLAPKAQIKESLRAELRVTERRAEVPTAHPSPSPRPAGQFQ
row,Kd,Binder
1,1090 nM,B8
2,555 nM,B9
3,1200 nM,B10
4,98 nM,B11

# Target: T2, mouse PD-1
# Assay: as above
row,Kd,Binder
1,980 nM,B8
2,420 nM,B9
3,1100 nM,B10
4,110 nM,B11
